This note sets out measurements from patent publication US20040068761.

The data set deals with FLP recombinase. In words: cell_activity. Particulars: excision of y+ donor flanked by FRTs (33,668/33,790 w+ progeny lost y+), with I-SceI co-expressed in Drosophila.

With “FRT (FLP recombination target) from yeast 2 micron plasmid”, the activity amounted to 99.6%.
